# Source: IntAct's records for PubMed 24937458
# B1: Lysine-specific demethylase 5B (Homo sapiens), Q9UGL1 (parent)
# chain: MEAATTLHPGPRPALPLGGPGPLGEFLPPPECPVFEPSWEEFADPFAFIHKIRPIAEQTGICKVRPPPDWQPPFACDVDKLHFTPRIQRLNELEAQTRVKLNFLDQIAKYWELQGSTLKIPHVERKILDLFQLNKLVAEEGGFAVVCKDRKWTKIATKMGFAPGKAVGSHIRGHYERILNPYNLFLSGDSLRCLQKPNLTTDTKDKEYKPHDIPQRQSVQPSETCPPARRAKRMRAEAMNIKIEPEETTEARTHNLRRRMGCPTPKCENEKEMKSSIKQEPIERKDYIVENEKEKPKSRSKKATNAVDLYVCLLCGSGNDEDRLLLCDGCDDSYHTFCLIPPLHDVPKGDWRCPKCLAQECSKPQEAFGFEQAARDYTLRTFGEMADAFKSDYFNMPVHMVPTELVEKEFWRLVSTIEEDVTVEYGADIASKEFGSGFPVRDGKIKLSPEEEEYLDSGWNLNNMPVMEQSVLAHITADICGMKLPWLYVGMCFSSFCWHIEDHWSYSINYLHWGEPKTWYGVPGYAAEQLENVMKKLAPELFVSQPDLLHQLVTIMNPNTLMTHEVPVYRTNQCAGEFVITFPRAYHSGFNQGFNFAEAVNFCTVDWLPLGRQCVEHYRLLHRYCVFSHDEMICKMASKADVLDVVVASTVQKDMAIMIEDEKALRETVRKLGVIDSERMDFELLPDDERQCVKCKTTCFMSAISCSCKPGLLVCLHHVKELCSCPPYKYKLRYRYTLDDLYPMMNALKLRAESYNEWALNVNEALEAKINKKKSLVSFKALIEESEMKKFPDNDLLRHLRLVTQDAEKCASVAQQLLNGKRQTRYRSGGGKSQNQLTVNELRQFVTQLYALPCVLSQTPLLKDLLNRVEDFQQHSQKLLSEETPSAAELQDLLDVSFEFDVELPQLAEMRIRLEQARWLEEVQQACLDPSSLTLDDMRRLIDLGVGLAPYSAVEKAMARLQELLTVSEHWDDKAKSLLKARPRHSLNSLATAVKEIEEIPAYLPNGAALKDSVQRARDWLQDVEGLQAGGRVPVLDTLIELVTRGRSIPVHLNSLPRLETLVAEVQAWKECAVNTFLTENSPYSLLEVLCPRCDIGLLGLKRKQRKLKEPLPNGKKKSTKLESLSDLERALTESKETASAMATLGEARLREMEALQSLRLANEGKLLSPLQDVDIKICLCQKAPAAPMIQCELCRDAFHTSCVAVPSISQGLRIWLCPHCRRSEKPPLEKILPLLASLQRIRVRLPEGDALRYMIERTVNWQHRAQQLLSSGNLKFVQDRVGSGLLYSRWQASAGQVSDTNKVSQPPGTTSFSLPDDWDNRTSYLHSPFSTGRSCIPLHGVSPEVNELLMEAQLLQVSLPEIQELYQTLLAKPSPAQQTDRSSPVRPSSEKNDCCRGKRDGINSLERKLKRRLEREGLSSERWERVKKMRTPKKKKIKLSHPKDMNNFKLERERSYELVRSAETHSLPSDTSYSEQEDSEDEDAICPAVSCLQPEGDEVDWVQCDGSCNQWFHQVCVGVSPEMAEKEDYICVRCTVKDAPSRK
# partner: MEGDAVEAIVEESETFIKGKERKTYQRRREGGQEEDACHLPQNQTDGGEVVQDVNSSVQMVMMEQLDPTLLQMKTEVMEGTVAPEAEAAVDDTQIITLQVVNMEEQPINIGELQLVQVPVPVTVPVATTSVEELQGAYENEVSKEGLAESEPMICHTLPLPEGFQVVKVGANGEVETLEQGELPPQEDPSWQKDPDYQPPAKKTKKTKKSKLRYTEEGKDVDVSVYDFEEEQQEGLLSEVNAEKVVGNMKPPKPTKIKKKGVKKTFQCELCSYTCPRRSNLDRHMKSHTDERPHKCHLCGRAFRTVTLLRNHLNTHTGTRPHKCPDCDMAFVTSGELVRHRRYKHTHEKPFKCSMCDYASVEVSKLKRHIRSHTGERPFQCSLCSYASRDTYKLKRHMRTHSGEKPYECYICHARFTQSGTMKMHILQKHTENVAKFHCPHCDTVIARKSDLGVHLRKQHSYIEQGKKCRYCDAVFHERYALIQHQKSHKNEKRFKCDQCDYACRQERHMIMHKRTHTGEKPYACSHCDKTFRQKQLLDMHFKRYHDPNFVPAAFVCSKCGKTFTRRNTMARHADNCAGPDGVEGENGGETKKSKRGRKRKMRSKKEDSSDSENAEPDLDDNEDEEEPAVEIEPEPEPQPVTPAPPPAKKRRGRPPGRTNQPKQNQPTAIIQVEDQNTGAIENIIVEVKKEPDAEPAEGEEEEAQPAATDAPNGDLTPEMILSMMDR
# Variants of: B1
# Details: with ctcf_human CTCF
row,Variant,effect of a mutation on the interaction
1,K1435R,decreasing interaction strength
